Series [1] addresses c-Src SH2. Put plainly: SH2 binding enrichment of the phosphorylated peptide, bacterial display (enrichment ratio); higher = better substrate or ligand; peptides without Tyr show the background.
The target in series [2] is SHP2-C SH2. Described as above.
In series [3] the target is Grb2 SH2 (UniProt P62993). The description is as above.
The target in series [4] is FGFR1 (UniProt P11362). The experiment in a line: phosphorylation enrichment, bacterial display (enrichment ratio); higher = better substrate or ligand; peptides without Tyr show the background.
Sequence of FGFR1 (P11362 whole entry, looked up): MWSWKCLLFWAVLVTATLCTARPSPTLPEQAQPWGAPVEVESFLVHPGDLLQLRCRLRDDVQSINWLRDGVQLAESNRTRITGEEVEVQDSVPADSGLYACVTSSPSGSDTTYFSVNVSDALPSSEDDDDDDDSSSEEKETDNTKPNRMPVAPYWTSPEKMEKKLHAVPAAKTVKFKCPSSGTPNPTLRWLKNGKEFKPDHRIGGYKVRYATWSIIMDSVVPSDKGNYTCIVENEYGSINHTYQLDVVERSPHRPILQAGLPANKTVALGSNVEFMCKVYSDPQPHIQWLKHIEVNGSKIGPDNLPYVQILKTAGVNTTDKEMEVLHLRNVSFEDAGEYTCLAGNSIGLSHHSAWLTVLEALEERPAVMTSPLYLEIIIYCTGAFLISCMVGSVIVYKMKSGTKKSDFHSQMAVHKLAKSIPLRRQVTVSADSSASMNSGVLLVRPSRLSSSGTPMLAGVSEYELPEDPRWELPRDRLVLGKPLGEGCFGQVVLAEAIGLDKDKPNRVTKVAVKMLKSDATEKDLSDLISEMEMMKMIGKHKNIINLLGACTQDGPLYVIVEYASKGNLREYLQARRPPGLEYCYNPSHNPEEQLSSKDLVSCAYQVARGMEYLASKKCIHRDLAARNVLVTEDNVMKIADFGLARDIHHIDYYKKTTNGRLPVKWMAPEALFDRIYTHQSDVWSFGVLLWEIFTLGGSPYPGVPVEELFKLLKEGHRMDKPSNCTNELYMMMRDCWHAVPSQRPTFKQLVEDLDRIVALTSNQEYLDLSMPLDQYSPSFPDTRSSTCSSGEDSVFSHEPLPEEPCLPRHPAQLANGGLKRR
Series [5] has as its target Jak2 (UniProt O60674). The series is described as above.
The target of series [6] is EPHB2 (UniProt P29323). The description is as above.
Sequence of EPHB2 (P29323 whole entry, looked up): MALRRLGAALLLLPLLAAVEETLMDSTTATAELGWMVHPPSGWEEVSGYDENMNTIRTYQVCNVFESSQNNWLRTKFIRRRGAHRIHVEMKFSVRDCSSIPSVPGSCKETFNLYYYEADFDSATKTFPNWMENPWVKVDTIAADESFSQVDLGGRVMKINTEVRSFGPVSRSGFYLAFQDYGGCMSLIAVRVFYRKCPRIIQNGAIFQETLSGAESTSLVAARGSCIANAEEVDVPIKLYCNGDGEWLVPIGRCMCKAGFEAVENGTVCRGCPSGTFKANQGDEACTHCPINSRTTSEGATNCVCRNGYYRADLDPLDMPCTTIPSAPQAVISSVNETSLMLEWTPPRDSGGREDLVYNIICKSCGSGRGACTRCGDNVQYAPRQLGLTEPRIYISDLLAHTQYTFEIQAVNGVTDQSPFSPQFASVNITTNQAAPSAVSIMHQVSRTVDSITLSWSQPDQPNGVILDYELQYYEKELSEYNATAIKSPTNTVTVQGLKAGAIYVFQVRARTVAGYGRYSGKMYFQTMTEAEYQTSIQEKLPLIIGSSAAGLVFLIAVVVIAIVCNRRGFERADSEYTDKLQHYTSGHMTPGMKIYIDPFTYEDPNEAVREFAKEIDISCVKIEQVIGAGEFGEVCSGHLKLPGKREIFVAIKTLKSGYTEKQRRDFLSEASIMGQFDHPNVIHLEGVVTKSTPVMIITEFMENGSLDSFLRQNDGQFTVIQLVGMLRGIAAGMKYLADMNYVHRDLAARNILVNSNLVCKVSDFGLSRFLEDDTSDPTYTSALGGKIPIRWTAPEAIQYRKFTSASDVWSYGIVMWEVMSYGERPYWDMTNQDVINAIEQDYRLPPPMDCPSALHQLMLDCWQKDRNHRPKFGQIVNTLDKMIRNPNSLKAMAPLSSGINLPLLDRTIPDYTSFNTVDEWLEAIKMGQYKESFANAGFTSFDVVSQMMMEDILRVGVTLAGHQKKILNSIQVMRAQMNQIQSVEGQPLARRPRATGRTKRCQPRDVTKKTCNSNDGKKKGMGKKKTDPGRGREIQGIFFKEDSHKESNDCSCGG
Series [7] deals with c-Abl (mouse). The series is described as above.
Series [8] deals with MERTK (UniProt Q12866). Described as above.
Sequence of MERTK (Q12866 whole entry, looked up): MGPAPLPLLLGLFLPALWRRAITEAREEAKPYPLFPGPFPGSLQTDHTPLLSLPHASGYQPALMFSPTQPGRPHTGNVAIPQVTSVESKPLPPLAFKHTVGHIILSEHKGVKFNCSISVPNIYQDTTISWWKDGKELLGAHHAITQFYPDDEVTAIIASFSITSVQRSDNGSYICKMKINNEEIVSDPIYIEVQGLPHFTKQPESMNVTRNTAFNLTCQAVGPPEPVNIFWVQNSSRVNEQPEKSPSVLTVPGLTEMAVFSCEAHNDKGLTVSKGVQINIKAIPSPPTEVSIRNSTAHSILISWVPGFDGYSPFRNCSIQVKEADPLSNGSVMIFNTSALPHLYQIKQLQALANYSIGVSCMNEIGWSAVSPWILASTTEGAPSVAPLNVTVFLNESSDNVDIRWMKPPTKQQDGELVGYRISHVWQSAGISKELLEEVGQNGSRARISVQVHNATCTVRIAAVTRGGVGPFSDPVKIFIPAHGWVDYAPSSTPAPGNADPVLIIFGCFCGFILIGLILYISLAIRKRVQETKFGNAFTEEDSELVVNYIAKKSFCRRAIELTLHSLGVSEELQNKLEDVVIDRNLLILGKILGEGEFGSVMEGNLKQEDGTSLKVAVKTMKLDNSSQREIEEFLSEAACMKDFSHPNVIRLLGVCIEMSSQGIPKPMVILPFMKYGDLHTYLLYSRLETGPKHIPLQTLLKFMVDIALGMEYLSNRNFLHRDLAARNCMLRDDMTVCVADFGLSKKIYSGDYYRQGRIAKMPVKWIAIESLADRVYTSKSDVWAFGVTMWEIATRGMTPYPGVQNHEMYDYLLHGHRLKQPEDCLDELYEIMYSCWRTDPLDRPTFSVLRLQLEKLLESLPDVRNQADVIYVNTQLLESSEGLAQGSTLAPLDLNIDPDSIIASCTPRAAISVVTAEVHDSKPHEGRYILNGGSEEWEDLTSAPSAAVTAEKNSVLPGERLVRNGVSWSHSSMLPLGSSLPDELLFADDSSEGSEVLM
Series [9] concerns the target FGFR3 (UniProt P22607). The description is as above.
The test system of series [10] is AncSZ. The series is described as above.
Series [11] deals with Hck (UniProt P08631). Described as above.
The target of series [12] is Fes (UniProt P07332). The series is described as above.
In series [13] the target is EPHB1 (UniProt P54762). The series is described as above.
Sequence of EPHB1 (P54762 whole entry, looked up): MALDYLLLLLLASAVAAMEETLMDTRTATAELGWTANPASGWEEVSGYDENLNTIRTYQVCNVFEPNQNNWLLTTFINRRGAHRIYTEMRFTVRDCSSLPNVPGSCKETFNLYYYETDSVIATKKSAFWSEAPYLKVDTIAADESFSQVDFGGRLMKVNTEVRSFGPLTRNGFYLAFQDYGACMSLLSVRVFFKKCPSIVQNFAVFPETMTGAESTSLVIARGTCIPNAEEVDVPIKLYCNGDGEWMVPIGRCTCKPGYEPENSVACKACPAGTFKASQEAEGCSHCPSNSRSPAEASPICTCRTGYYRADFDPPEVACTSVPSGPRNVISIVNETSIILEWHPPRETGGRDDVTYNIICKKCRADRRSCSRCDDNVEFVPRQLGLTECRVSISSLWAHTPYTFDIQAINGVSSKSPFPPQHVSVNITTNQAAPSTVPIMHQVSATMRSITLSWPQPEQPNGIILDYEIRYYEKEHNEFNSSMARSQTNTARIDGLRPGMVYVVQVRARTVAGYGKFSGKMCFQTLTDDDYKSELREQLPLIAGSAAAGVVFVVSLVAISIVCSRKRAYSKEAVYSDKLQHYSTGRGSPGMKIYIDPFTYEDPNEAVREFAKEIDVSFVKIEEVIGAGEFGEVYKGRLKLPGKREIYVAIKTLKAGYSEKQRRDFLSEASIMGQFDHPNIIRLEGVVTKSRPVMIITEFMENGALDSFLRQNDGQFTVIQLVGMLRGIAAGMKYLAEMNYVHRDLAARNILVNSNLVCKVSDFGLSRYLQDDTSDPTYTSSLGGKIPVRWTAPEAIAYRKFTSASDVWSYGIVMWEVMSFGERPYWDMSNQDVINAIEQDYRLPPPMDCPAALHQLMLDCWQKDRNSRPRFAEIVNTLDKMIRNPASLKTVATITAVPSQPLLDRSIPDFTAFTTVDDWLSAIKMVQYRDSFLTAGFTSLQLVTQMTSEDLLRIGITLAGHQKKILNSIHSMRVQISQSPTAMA
The target in series [14] is Fyn (UniProt P06241). The series is described as above.
For series [15], the system named is c-Src. The description is as above.
For series [16], the system named is Fer (mouse). The description is as above.

Seven sequences from the supplement of paper PMC10065799, “High-throughput profiling of sequence recognition by tyrosine kinases and SH2 domains using bacterial peptide display” (eLife, 2023) can be followed below.
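Throughout, for SH2 binding enrichment of the phosphorylated peptide, bacterial display: peptide library displayed on the E. coli surface as eCPX fusions, selected cells deep-sequenced, score is each peptide's frequency after selection divided by its frequency in the input.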
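Throughout, for phosphorylation enrichment, bacterial display: 11-residue human phosphosite peptides and single-mutation variants displayed on the E. coli surface, counted by deep sequencing, each peptide's frequency after selection divided by its frequency in the unselected input library; frequency after pTyr selection over input frequency; kinase dosed for 20-30% of maximal phosphorylation in three min.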

Sequence of FGFR3 (P22607 whole entry, looked up): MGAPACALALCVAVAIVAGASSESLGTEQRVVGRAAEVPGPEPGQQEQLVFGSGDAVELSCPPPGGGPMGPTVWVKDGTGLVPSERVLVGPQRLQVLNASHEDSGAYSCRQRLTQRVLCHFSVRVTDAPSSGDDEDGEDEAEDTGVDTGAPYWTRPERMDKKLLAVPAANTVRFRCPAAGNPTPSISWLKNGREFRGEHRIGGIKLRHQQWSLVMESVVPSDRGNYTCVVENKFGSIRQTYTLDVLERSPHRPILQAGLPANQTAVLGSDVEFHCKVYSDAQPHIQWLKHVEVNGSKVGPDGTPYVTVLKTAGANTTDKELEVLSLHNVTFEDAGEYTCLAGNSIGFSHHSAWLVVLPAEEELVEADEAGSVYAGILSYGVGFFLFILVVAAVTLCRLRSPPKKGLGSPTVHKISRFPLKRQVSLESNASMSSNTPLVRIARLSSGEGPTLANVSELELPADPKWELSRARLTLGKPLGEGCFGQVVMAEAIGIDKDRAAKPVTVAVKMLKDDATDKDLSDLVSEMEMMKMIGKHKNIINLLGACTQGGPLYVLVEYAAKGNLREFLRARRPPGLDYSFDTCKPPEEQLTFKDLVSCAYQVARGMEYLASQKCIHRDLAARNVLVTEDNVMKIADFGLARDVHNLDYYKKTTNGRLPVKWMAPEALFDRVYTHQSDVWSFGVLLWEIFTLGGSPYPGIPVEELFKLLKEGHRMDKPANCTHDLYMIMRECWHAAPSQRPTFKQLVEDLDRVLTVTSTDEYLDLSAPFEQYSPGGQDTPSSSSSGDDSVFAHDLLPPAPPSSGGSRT
Sequence of Grb2 SH2 (P62993 whole entry, looked up): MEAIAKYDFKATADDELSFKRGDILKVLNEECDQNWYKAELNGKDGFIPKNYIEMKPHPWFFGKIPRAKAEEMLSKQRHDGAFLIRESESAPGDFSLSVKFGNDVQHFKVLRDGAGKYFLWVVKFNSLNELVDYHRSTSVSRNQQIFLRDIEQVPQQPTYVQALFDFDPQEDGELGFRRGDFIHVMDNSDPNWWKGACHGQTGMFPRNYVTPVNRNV

Regarding AFLLLYFNDTH [BMP15_Y235], the SH2 binding enrichment in series [1] stood at 0.566; in series [2], 0.79; in series [3], 1.01. Moreover, the phosphorylation enrichment in series [4] was 0.49; in series [5] it was 1.26; in series [6], 0.496; in [7], 1.16; in series [8], 0.43; in series [9], 0.915. The phosphorylation enrichment in series [10] was 1.15; in series [11] it was 0.482; in [12] it was 1.41; in [13], 0.761; in series [14], 0.445; in series [15], 0.486. For the same sequence, in series [16], the phosphorylation enrichment worked out at 0.525.
For the sequence AGLVQYYMEHH [PTPN11_Y80_E76G], the SH2 binding enrichment in [1] stood at 1.14; in [2], 1.25; in series [3], 1.35. Also, the phosphorylation enrichment in series [4] amounted to 0.608; in series [5], 0.607; in series [6], 0.777; in [7], 0.448; in series [8] it was 0.49; in [9], 0.73. In addition, the phosphorylation enrichment in [10] was determined as 0.677; in series [11] it was 0.754; in series [12], 0.939; in [13], 0.973; in [14] it was 0.545; in [15] it was 0.468. Further, in series [16], the phosphorylation enrichment came out at 0.499.
As to AGVIIYTSRFQ [PFAS_Y538_A535V], the SH2 binding enrichment worked out at 0.49 in series [1], 0.794 in [2] and 0.791 in series [3]. The phosphorylation enrichment amounted to 0.679 in series [4]; 0.87 in series [5]; 0.631 in [6]; 0.522 in [7]; 0.429 in [8]; 0.792 in series [9]. For the same sequence, the phosphorylation enrichment in series [10] was found to be 1.05; in [11], 0.664; in [12], 1.42; in [13], 0.636; in series [14], 0.649; in [15] it was 0.578. Moreover, the phosphorylation enrichment in series [16] turned out to be 0.574.
Take AHLTEYLSTHY [UQCRC1_Y219_D215H]: the SH2 binding enrichment came to 0.511 in series [1], 0.724 in series [2] and 0.845 in series [3]. In addition, the phosphorylation enrichment in series [4] stood at 0.475; in series [5], 0.647; in series [6], 0.396; in [7], 0.475; in [8], 0.464; in series [9], 0.585. Besides, the phosphorylation enrichment is 0.716 in series [10]; 0.517 in series [11]; 0.639 in series [12]; 0.462 in [13]; 0.402 in series [14]; 0.453 in series [15]. Further, in series [16], the phosphorylation enrichment is 0.371.
With AIFWRYSKFFD [SH3PXD2B_Y45_R43W_YF], the values for the SH2 binding enrichment in series [1], in series [2] and in series [3] were 0.699, 0.782 and 1.05, respectively. Besides, the phosphorylation enrichment amounted to 0.445 in [4]; 1.16 in series [5]; 0.52 in series [6]; 0.959 in series [7]; 0.323 in series [8]; 0.805 in series [9]. In addition, the phosphorylation enrichment came out at 0.839 in series [10]; 0.41 in [11]; 1.35 in series [12]; 0.493 in series [13]; 0.444 in series [14]; 0.326 in series [15]. Moreover, the phosphorylation enrichment in series [16] was determined as 0.49.
Turning to AIGCEYSEINI [SIGLEC12_Y588_Y586C], the SH2 binding enrichment in series [1] worked out at 0.631; in series [2], 0.362; in series [3], 0.603. Moreover, the phosphorylation enrichment in [4] stood at 3.95; in [5], 0.924; in series [6], 0.797; in series [7], 0.928; in [8], 0.492; in series [9], 2.99. The phosphorylation enrichment came to 1.94 in [10]; 2.42 in series [11]; 1.27 in [12]; 1.24 in [13]; 1.79 in series [14]; 2.47 in series [15]. The phosphorylation enrichment in series [16] was found to be 5.32.
Consider AIGYEYSEINI [SIGLEC12_Y588], for which the SH2 binding enrichment in series [1] amounted to 8.56; in series [2] it was 1.58; in series [3], 0.656. In addition, the phosphorylation enrichment in series [4] was determined as 5.67; in series [5] it was 0.987; in [6] it was 0.562; in series [7], 0.9; in series [8], 0.492; in series [9], 3.56. Also, the phosphorylation enrichment was found to be 1.44 in series [10]; 2.3 in series [11]; 0.999 in series [12]; 0.797 in [13]; 1.11 in series [14]; 2.03 in [15]. The phosphorylation enrichment in [16] was found to be 6.47.
